Measured values published in the RNAGym collection of RNA variant scans (doi:10.1073/pnas.2313332121).

B1: TPR t1 (parent)
chain: GACCAAUCUGCCCUCAGAGCUCGAGAACAUCUUCGGAUGCAGAGGAGGCAGGCUUCGGUGGCGCGAUAGCGCCAACGUCCUCAACCUCCAAUGCAUCCCACCACAUGAUGAUGCCUGAAGAGCCUUGGUUUUUUG

Variants of: B1
Assay: polymerase ribozyme fitness, log enrichment relative to wild type (log ratio); higher = more active; in vitro selection for triplet polymerase activity
How it was run: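 One round of in vitro selection, in triplicate, was applied to PCR-built, transcribed mutant libraries of each subunit of a heterodimeric triplet polymerase ribozyme. The steps were annealing with a biotinylated primer, partner subunit and triplets, incubation frozen at −7 °C, gel excision of extended constructs, streptavidin-bead capture and RT-PCR. Fitness is the logarithm, base 2, of genotype enrichment over wild-type enrichment from inverse-variance-weighted replicate averages of Illumina-sequenced inputs and outputs, keeping genotypes with ≥10 input reads and ≥1 read per output.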

| Variant | polymerase ribozyme fitness (log ratio) |
| --- | --- |
| GACCAAUCUGCCCUCAGAGCUCGAGAACAUCUUCGGAUGCAGAGGUGGCAGGCUUCGGUGGCACGAUAGCGCCAACGUCCUCAACCUCCAAUGCAUCCCACCACAUGAUGAUGCCUGAAGAGCCUUGGUUUUUUG [A46U G63A] | -1.91 |
| GACCAAUCUGCCCUCAGAGCUCGAGAACAUCUUCGGAUGCAGAGGUGGCAGGCUUCGGUGGCGCGAUAGCGCCAACCUCCUCAACCUCCAAUGCAUCCCACCACAUGAUGAUGCUUGAAGAACCUUGGUCUUUUG [A46U G77C C115U G122A U130C] | -4.76 |
| GACCAAUCUGCCCUCAGAGCUCGAGAACAUCUUCGGAUGCAGAGGUGGCAGGCUUCGGUGGCGCGAUAGCGCCAAAGUCCUCACCCUCCAAUGCAUCCCCCCACAUGAUGAUGCCUGAAGAGCAUUGGUUUUUUG [A46U C76A A84C A100C C124A] | -4.99 |
| GACCAAUCUGCCCUCAGAGCUCGAGAACAUCUUCGGAUGCAGAGGUGGCAGGCUUCGGUCGCGCGAUAGCGCCAACGUCCUCAACCUCCAAUGCACCCCACCACAUGAUGAUGCCUGAAGAGGCUUGGUUUUUUG [A46U G60C U96C C123G] | 0.53 |
| GACCAAUCUGCCCUCAGAGCUCGAGAACAUCUUCGGAUGCAGAGGUGGCAGGCUUCGGUGGCGCGAUAGUGCCAACGUGCUCAACCUCCAAUGCAUCCCACCACAUGAUGAUGCCUGAAGAGCCUUGGUCUUUUG [A46U C70U C79G U130C] | -4.73 |
| GACCAAUCUGCCCUCAGAGCUCGAGAACAUCUUCGGAUGCAGAGGUGGCAGGCUUCGGUGGCGCGAUAGCGCCAACGUCCUCAACCUCCAAUGCAUCCCACCACAUGAUAAUGCCUGAAGAGCCUUGGUUUUUUG [A46U G110A] | -2.4 |
| GACCAAUCUGCCCUCAGAGCUCGAGAACAUCUUCGGAUGCAGAGGUGGCAGGCUUCGGUGGGGCGAUAGCGCCAACGUCCUCAACCUCCAAUGCAUCCCACCACAUGAUGAGGCCUGAAGAGCCUUGGUUUUUUG [A46U C62G U112G] | -2.14 |
| GACCAAUCUGCCCUCAGAGCUCGAGAACAUCUUCGGAUGCAGAGGUGGCAGGCUUCGGUGGCGCGAUAGCGCCAACGUCCUCAACCUCUAAUGCAUCCCACCACAUGAUGAUGCCUGAAGAGCCUUGGUUUUUUU [A46U C89U G135U] | -4.54 |
| GACCAAUCUGCCCUCAGAGCUCGAGAACAUCUUCGGAUGCAGAGGUGGCAGGCUUCGGUGGCGCGAUAGCGCCAACGUCCUCAACCUCCAAUGCAUCCCACCACAUGAUGAUUCCUGAAGAGCCUUGGUUUUUUG [A46U G113U] | -3.73 |
| GACCAAUCUGCCCUCAGAGCUCGAGAACAUCUUCGGAUGCAGAGGUGGCAGGCUUCGGUGGCGCGAUAGCGCCAACGUCCUCAACCUCCAAUGCAUCCCACCAAAUGAUGAUGCCUGAAGAGCCUUGGUUUUUUG [A46U C104A] | -2.88 |
| GACCAAUCUGCCCUCAGAGCUCGAGAACAUCUUCGGAUGCAGAGGUGGCAGGCUUCGGUGGCGCGAUAGCUCCAACGUCCUCAACCUCCAAUGCAUCCCACCACAUGAUGAUGCCUGGAGAGCCUUGGUUUUUUG [A46U G71U A118G] | -0.0825 |
| GACCAAUCUGCCCUCAGAGCUCGAGAACAUCUUCGGAUGCAGAGGUGGCAGGCUUCGGUGGCGCGAUAGCGCCAACGUCCUAAACCUCCAAUGCAUCCCACCACAUGAUGAUGCCUGAAGAGCCUUGGUUUUUUG [A46U C82A] | -1.42 |
| GACCAAUCUGCCCUCAGAGCUCGAGAACAUCUUCGGAUGCAGAGGUGGCAGGCUUCGGUGGCGCGAUAGCGCCAACGUCCUCAACCUCCAAUGCAUCCCACCACAUCAUGAUGCCUGAAGAGCCUUGGUUUUUUG [A46U G107C] | -6.11 |
| GACCAAUCUGCCCUCAGAGCUCGAGAACAUCUUCGGAUGCAGAGGUGGCAGGCUUCGAUGGCGCGAUAGCGCCAACGUCCUCGCCCUCCAAUGCAUCCCACCACAUGAUGAUGCCUGAAGAGCCUUGGUUUUUUG [A46U G58A A83G A84C] | -2.18 |
| GACCAAUCUGCCCUCAGAGCUCGAGAACAUCUUCGGAUGCAGAGGUGGCAGGCUUCGGUGGCGCGAUAGCGCUAACGUCCUCAACCUCCAAUGCAUCCCACCACAUGAUGAUGCCUGAAGAGGCUUAGUUUUUUG [A46U C73U C123G G127A] | -1.5 |
| GACCAAUCUGCCCUCAGAGCUCGAGAACAUCUUCGGAUGCAGAGGUGGCAGGCUUCGGUGGCGCGAUAGCGCCAACGUCCUCAACCUCCAAUGCAUCCCAUCACAUGAUGAUGCCUGAAGAGCCUUGGUUUUUUG [A46U C101U] | -0.308 |
| GACCAAUCUGCCCUCAGAGCUCGAGAACAUCUUCGGAUGCAGAGGUGGCAGGCUUCGGUGGCGCGAUAGCGCCAACGUCCUCAACCUCCAAUGCAUCCCAGCACAUGAUGAUGCCUGAAGAGCCUUGGUUUUUUG [A46U C101G] | -3.57 |
| GACCAAUCUGCCCUCAGAGCUCGAGAACAUCUUCGGAUGCAGAGGUGGCAGGCUUCGGUGGCGCGAUAGCGCCAACGUCCUCAACCUCCAAUUCAUCCCACCACAUGAUGAUGCCUGAAGAGCCUUGGUUUUUUG [A46U G93U] | -2.06 |
| GACCAAUCUGCCCUCAGAGCUCGAGAACAUCUUCGGAUGCAGAGGUGGCAGGCUUCUGUGGCGCGAUAGCGCCAACGUCCUCAACCUCCAAUGAAUCCCACCACAUGAUGAUGCCUGAAGAGCCUUGGUUUUUUG [A46U G57U C94A] | -2.21 |
| GACCAAUCUGCCCUCAGAGCUCGAGAACAUCUUCGGAUGCAGAGGUGGCAGGCUUCGGUGGCGCGAUAGCGCCAACGUCCUCAACCUACAAUGCAUCCCACCACAUGAUGAUGCCUGAAGAGCCUUGGUUUUUUG [A46U C88A] | -1.18 |
| GACCAAUCUGCCCUCAGAGCUCGAGAACAUCUUCGGAUGCAGAGGUGGCAGCCUUCGGUGGCGCGAUAGCGCCAACGUCCUCAACCGCCAAUGCAUCCCACCACAUGAUGAUGCCUGAAGAGCCUUGGUUUUUUU [A46U G52C U87G G135U] | -1.01 |
